Experimental data reported in patent publication US20110195482.

Experiments:
[1] = target: fibrinogen (MP Biomedicals), a human fibrin precursor (UniProt P02671)
[2] = tested on: fibrin of the fibrin plate (fibrinogen converted with 40 units of thrombin)
[3] = target: prothrombin (Sigma), a human blood coagulation factor (UniProt P00734)

serine protease present in the venom of Bombus ignitus, activated form (Bi-VSP)
human fibrinogen hydrolysis by Bi-VSP, SDS-PAGE time course (Aα chain) [1]: Aα chain was completely hydrolyzed within 5 min after the reaction | human fibrinogen hydrolysis by Bi-VSP, SDS-PAGE time course (Bβ and γ chains) [1]: Bβ and γ chains were completely hydrolyzed within 60 min | fibrin plate assay, fibrinolytic activity [2]: white zones for the fibirnolysis were formed according to each different concentration | human prothrombin activation by Bi-VSP, SDS-PAGE time course [3]: prothrombin started to convert into an activated form of thrombin 5 min after the reaction
